The target of the test is T1, RNASEH2BC heterodimer, purified (human, UniProt Q5TBB1 1-312; Q8TDP1 1-164).
T1 sequence (looked up) 1: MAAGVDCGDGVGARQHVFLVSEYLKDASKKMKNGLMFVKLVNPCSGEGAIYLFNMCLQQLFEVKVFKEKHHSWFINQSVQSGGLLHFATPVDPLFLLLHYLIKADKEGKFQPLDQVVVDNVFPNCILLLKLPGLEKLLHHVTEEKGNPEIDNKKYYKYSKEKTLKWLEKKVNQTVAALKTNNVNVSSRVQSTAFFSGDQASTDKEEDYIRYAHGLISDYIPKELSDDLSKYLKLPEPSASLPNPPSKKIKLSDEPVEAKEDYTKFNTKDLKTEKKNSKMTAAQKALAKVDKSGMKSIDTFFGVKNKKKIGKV
T1 sequence (looked up) 2: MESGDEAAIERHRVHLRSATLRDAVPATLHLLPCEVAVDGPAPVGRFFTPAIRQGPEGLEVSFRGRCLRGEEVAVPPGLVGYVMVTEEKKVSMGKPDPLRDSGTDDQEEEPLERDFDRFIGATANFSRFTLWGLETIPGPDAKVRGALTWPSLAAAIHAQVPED
Put plainly: fluorescence polarisation. (In general: Fluorescence polarisation rises when a labelled molecule tumbles more slowly, as on binding a larger partner.)

Ends that are not written are not given here.

In general, Kd refers to the constant that tells how readily two partners part at equilibrium. Read a low Kd as tighter binding. For fluorescein-GSSHRYFLERGLESATSL [fluorescein-labeled peptide RNASEH2A:283–299], the affinity, expressed as Kd, was 123 ± 10 nM.
